Data set [1] deals with T1, mv4Int (369 aa integrase) (Lactobacillus delbrueckii bacteriophage …).
T1 chain: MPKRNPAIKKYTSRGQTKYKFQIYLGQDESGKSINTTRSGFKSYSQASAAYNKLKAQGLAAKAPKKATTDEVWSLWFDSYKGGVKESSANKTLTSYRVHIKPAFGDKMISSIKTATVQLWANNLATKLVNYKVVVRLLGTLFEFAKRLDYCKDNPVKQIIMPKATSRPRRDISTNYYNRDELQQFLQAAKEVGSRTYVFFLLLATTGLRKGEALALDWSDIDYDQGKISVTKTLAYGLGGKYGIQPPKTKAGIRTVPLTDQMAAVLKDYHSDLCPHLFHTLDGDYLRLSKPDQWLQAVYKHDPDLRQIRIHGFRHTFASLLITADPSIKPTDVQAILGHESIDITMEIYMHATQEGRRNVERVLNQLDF
Description: EMSA; with arm DNA; complex III increases with mv4Int. Particulars: tags: expressed from pET15b; label: Cy3 on bottom strand. On the procedure: However, if DNA containing the P′1-P′2 arm-binding sites was added to the reaction, the inhibition was removed and ^λInt was able to stably bind to the core-binding sites. To determine if ^mv4Int N-ter domain also exerts such inhibitory effect on its C-ter domain, they compared the ^mv4Int binding to a labelled 35-bp dsDNA containing the 21-bp core-attP region (Table 7C), in the presence or absence of unlabelled dsDNA containing the P′1 and P′2 arm-type binding sites (Table 7C). ^mv4Int binding to the COC′ sequence appeared quite unstable, as only faint bands and strong background smear can be observed (lane 3, FIG. 8A). Addition of a 28-bp dsDNA containing the P′12 sequences (Table 7C) greatly stimulates and stabilizes ^mv4Int binding to the core-attP sequence and led to the formation of three complexes (lane 4, FIG. 8A). […] To ensure that the stabilization effect was due to the binding of the N-ter domain of ^mv4Int to the arm-type binding site, the 28-pb P′12 dsDNA was replaced by a DNA duplex of 40 pb containing the P′1 and P′2 sites (Table 7C). A stabilization effect on the binding to the COC′ sequence was observed (lane 5, FIG. 8A), with the formation of two complexes (II* and III*) of mobility lower than the complexes observed with the 28-bp P′12 fragment. […]
Background: Mobility shift assays separate free from complexed probe on a gel.

The target in data set [2] is T1, mv4Int (369 aa integrase). Description: EMSA; stable with P'12 arm DNA; unstable without; room temperature, polydIdC. Particulars: tags: expressed from pET15b; label: Cy3 on bottom strand. On the procedure: 5′ Cy3 end-labelled synthetic oligonucleotides (HPLC purified) were obtained from Eurofins. Labelled double strand DNA substrates were prepared by hybridization of complementary oligonucleotides (Table 7C) in 10 mM Tris pH 7.5, 50 mM NaCl by incubating the samples 5 min at 95° C. in a thermal cycler (Biorad) and decreasing the temperature of 1.5° C./min until it reaches 25° C. Binding reactions (20 μl) were performed with 0.87 pmol of labelled core- or arm-type DNA and 4.48 pmol of unlabelled arm- or core-type DNA in buffer containing 25 mM Tris pH 8, 75 mM NaCl, 10% glycerol, 0.5 mM DTT, 0.5 mM EDTA, 1 μg polydIdC (Sigma), 0.1 mg/ml BSA. The protein was added, the reaction performed at room temperature for 20 min and samples were loaded onto a non-denaturing 7.5% polyacrylamide gel (Mini-PROTEAN TGX, Biorad). The gels were run at 4° C., 75V for 2 h.
However, if DNA containing the P′1-P′2 arm-binding sites was added to the reaction, the inhibition was removed and ^λInt was able to stably bind to the core-binding sites. […]

B1: BOB' WT attB 35 bp (dsDNA)
DNA 1: GGTATTGTTCAAATCCTGTACTCTCCTTGCGTAAC
DNA 2: GTTACGCAAGGAGAGTACAGGATTTGAACAATACC
Take B1: in data set [1], the binding result is reported as “binds”.

B2: COC' WT core-attP 35 bp (dsDNA)
DNA 1: GGTATTGGAAAGAACCTGTACTCTCCTTGCGTAAC
DNA 2: GTTACGCAAGGAGAGTACAGGTTCTTTCCAATACC
For B2, the binding result in data set [2] was “binds”.

The values are drawn from patent US20250354175, “ATTP MV4-DERIVED SITE-SPECIFIC RECOMBINATION AND ITS USE FOR INTEGRATION OF SEQUENCE OF INTEREST” (INSTITUT NATIONAL DE RECHERCHE POUR L'AGRICULTURE, …, published 2025).
